US20100266532A1, “METHODS FOR INHIBITING SCARRING” (Renovo Limited, priority 2007, published 2010)

Key:
[1] = tested on: 1 centimetre experimental wound; assay: Clinical trial, single intradermal injection, lay panel VAS scar scoring (ToScar); assay type: in vivo, human
Description: FIG. 1 illustrates data from a clinical trial conducted by the inventors to generate a dose response curve indicative of the anti-scarring effect achieved using various different doses of TGF-β3 administered in a single incidence of treatment. Either TGF-β3 or placebo were administered as a single intradermal injection to a 1 centimetre experimental wound. […] To test the treatment effect, ToScar of the TGFβ3 scar was subtracted from the anatomically matched Placebo ToScar on the other arm on each subject. ToScar was calculated as the sum of VAS scores (mm) from week 6 and months 3, 4, 5, 6 and 7. The scars were scored by an independent lay panel at 6 time points after dosing (week 6, months 3-7) using a 100 mm VAS line.

human wounds [2] = assay: Clinical trial, two incidences of treatment within approximately 1 hour, lay panel VAS scar scoring; assay type: in vivo
Description: FIG. 2 illustrates data from a clinical trial conducted by the inventors. In this study TGFβ3 and Placebo were each administered in two separate incidences of treatment (by means of two intradermal injections). However, unlike the methods of the present invention, the first incidence of treatment took place immediately prior to wounding but the second incidence of treatment occurred immediately after wound closure, i.e., both doses being administered within approximately 1 hour of one another (the first ten to thirty minutes prior to wounding, and the second ten to thirty minutes post-wounding). […] To test the treatment effect, ToScar of the TGFβ3 scar was subtracted from the anatomically matched Placebo ToScar on the other arm on each subject. ToScar was calculated as the sum of VAS scores (mm) from week 6 and months 3, 4, 5, 6 and 7. The scars were scored by an independent lay panel at 6 time points after dosing (week 6, months 3-7) using a 100 mm VAS line.
FIG. 8 illustrates data from a clinical trial conducted by the inventors in which either TGF-β3 or placebo were administered in two incidents of treatment (each comprising administration of the test substance by intradermal injection), the first incidence occurring prior to wounding and the second immediately after wound closure, i.e., both doses of TGF-β3 being the same as one another, and administered within approximately 1 hour (10-30 mins prior to wounding and 10-30 mins post wounding).

human wounds [3] = assay: Human study, two incidences of treatment approximately 24 hours apart, lay panel VAS scar scoring and macroscopic images; assay type: in vivo
Description: In this study, control treatments using TGFβ3 and Placebo were administered in two incidences of treatment (each by intradermal injection), the first prior to wounding and the second approximately 24 hours after wounding. […] To test the effect of control treatment with TGF-β3, ToScar of the TGFβ3 scar was subtracted from the anatomically matched Placebo ToScar on the other arm on each subject. ToScar was calculated as the sum of VAS scores (mm) from week 6 and months 3, 4, 5, 6 and 7. The scars were scored by an independent lay panel at 6 time points after dosing (week 6, months 3-7) using a 100 mm VAS line.
The macroscopic images are from within subject scars produced on healing of placebo treated and TGFβ3 control treated wounds (dosed twice with 50 ng, 200 ng or 500 ng/100 μl TGFβ3 per cm of wound margin in two incidences of treatment approximately 24 hours apart) in a clinical trial conducted by the inventors. The same amount of TGF-β3 was administered in each incidence of treatment, and the amounts used are shown in the captions (50 ng/100 μl TGFβ3 per cm of wound margin shown top left, with placebo from the same subject top right; 200 ng/100 μl TGFβ3 per cm of wound margin shown middle left, with placebo from the same subject middle right; and 500 ng/100 μl TGFβ3 per cm of wound margin shown bottom left, with placebo from the same subject bottom right).
TGFβ3 and Placebo were administered by means of intradermal injection in two incidences of treatment, the first prior to wounding and the second approximately 24 hours later. […] The scars were scored by an independent lay panel at 6 time points after dosing (week 6, months 3-7) using a 100 mm VAS line.

[4] = tested on: scars produced on healing of wounds; assay: Profilometry analysis of silicone moulds from scars, dosed twice approximately 24 hours apart; assay type: in vivo, human
Text: Note that this is not a method of treatment in accordance with the invention, but (along with FIG. 6) serves to provide comparative data illustrating the surprising effectiveness of a method of treatment in accordance with the invention.

experimental rat wounds = assay: Rat model of scar formation, dose response, two equal doses separated by 24 hours; assay type: in vivo; conditions: repeated treatment with low doses or with high doses (range 5-500 ng/cm), 24 hours apart
Description: FIG. 10 illustrates a “bell-shaped” dose response curve in a rat model of scar formation in response to different doses of TGF-β3. TGF-β3 was provided to wounds via two injections of TGF-β3 separated by approximately 24 hours. The amount of TGF-β3 provided in each injection was the same in each incidence of treatment.
FIG. 10 illustrates that the TGF-β3 “bell-shaped” dose response curve observed in human subjects is also found in experimental animals. Here, TGF-β3 was provided to experimental rat wounds, in two incidences of treatment separated by 24 hours (the first incidence of treatment occurring at, or around, the time of wounding). The amount of TGF-β3 administered per centimetre of wound in each incidence of treatment is shown on the X-axis (5 ng/cm, 50 ng/cm, 200 ng/cm or 500 ng/cm).

[5] = dosed twice with 50 ng/100 μl per cm approximately 24 hours apart
[6] = dosed twice with 200 ng/100 μl per cm approximately 24 hours apart

B1: TGF-β3: well-known anti-scarring growth factor, Sequence ID No. 1; labelled "Juvista" in FIGS. 8 and 9 (protein, listed as Homo sapiens)
chain: ALDTNYCFRNLEENCCVRPLYIDFRQDLGWKWVHEPKGYYANFCSGPCPYLRSADTTHSTVLGLYNTLNPEASASPCCVPQDLEPLTILYYVGRTPKVEQLSNMVVKSCKCS
- inhibition of scarring ([1]; single application of 50 ng, 200 ng or 500 ng/100 μl per cm of wound margin): effectively inhibited
- scar improvement (placebo ToScar minus TGFβ3 ToScar, sum of VAS scores), average ([1]; single application, 200 ng/100 μl per cm of wound margin, maximum improvement): > 50 mm
- drug efficacy at top of dose range ([1]; single application, 500 ng/100 μl per cm of wound margin, versus 200 ng): reduction in drug efficacy
- inhibition of scarring (mean VAS scores over time) (human wounds [2]; two applications of 5, 50, 200 and 500 ng/100 μl per cm within approximately 1 hour, week 6 to month 7): scarring is inhibited
- inhibition of scarring (human wounds [2]; two applications of 5, 50, 200 and 500 ng/100 μl per cm, both within approximately 1 hour): effectively inhibited
- scar improvement (placebo ToScar minus TGFβ3 ToScar, sum of VAS scores), average (human wounds [2]; two applications within approximately 1 hour, 200 ng/100 μl per cm, maximum improvement): > 40 mm
- drug efficacy at top of dose range (human wounds [2]; two applications within approximately 1 hour, 500 ng/100 μl per cm, versus 200 ng): reduction in drug efficacy
- effectiveness relative to other doses (human wounds [3]; 500 ng in each of two incidences of treatment separated by 24 hours): notably more effective than the others
- effectiveness relative to other doses (mean VAS scores over time) (human wounds [3]; 500 ng per centimetre in each incidence of treatment, approximately 24 hours apart): surprisingly more effective than the other methods of treatment
- inhibition of scarring, macroscopic images (human wounds [3]; 500 ng/100 μl per cm twice approximately 24 hours apart (highest dose), versus 50 and 200 ng): greatest inhibition of scarring achieved
- inhibition of scarring (human wounds [3]; two applications of 5, 50, 200 and 500 ng/100 μl per cm, prior to and approximately 24 hours post-wounding): effectively inhibited
- inhibition of scarring (mean VAS scores over time) (human wounds [3]; two applications of 5, 50, 200 or 500 ng/100 μl per cm, prior to wounding and approximately 24 hour post-wounding, week 6 to month 7): scarring is inhibited
- reduction in scar surface area compared to placebo [4, 5]: 30.21%
- scar surface area [4, 5]: 12.823 mm^2
- reduction in scar raised volume compared to placebo [4, 6]: 73.33%
- reduction in scar surface area compared to placebo [4, 6]: 75.19%
- scar raised volume [4, 6]: 0.0008 mm^3
- scar surface area [4, 6]: 3.532 mm^2
- inhibition of scarring, 3-dimensional simulations ([4]; dosed twice with 500 ng/100 μl per cm approximately 24 hours apart): Maximal inhibition of scarring
- inhibition of scarring (experimental rat wounds): little inhibition of scarring
